Source: patent publication US8278415B2 (Centocor, Inc., dated 2012)

Molecular target: sEGFR-MMB (human)
Experiment: phage ELISA on coated sEGFR-MMB, chemiluminescence (background typically <200 units)

Sequence of sEGFR-MMB (human) (chain, as listed by the source limits assumed): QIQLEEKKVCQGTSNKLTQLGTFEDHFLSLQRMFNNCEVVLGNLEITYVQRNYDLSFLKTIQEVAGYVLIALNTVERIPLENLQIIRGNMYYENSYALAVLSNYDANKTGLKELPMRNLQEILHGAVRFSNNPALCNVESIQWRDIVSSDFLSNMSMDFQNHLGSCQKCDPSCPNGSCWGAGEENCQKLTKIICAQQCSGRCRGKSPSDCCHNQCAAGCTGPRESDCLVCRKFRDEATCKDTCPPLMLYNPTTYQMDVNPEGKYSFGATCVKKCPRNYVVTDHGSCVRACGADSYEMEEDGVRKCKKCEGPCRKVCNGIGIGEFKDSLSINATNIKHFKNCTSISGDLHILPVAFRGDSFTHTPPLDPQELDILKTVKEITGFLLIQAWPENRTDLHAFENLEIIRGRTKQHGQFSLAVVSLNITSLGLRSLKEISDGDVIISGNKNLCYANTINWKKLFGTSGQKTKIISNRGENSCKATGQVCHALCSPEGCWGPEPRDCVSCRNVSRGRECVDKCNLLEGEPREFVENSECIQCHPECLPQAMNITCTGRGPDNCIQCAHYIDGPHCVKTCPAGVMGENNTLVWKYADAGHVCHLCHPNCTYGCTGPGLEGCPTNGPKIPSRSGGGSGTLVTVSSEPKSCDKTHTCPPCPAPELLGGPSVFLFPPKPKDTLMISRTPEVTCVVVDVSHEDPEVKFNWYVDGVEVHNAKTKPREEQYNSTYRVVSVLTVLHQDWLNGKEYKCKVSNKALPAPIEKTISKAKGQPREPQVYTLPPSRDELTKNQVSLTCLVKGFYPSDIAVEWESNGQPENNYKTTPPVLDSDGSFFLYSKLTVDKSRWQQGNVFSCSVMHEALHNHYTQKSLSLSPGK

Point of comparison: AFCRLDFNQWLTCLV [S19 library phage peptide of SEQ ID NO: 40], ELISA 2580 units. Against it:
- MICYLVDSGNIICYK [P180] — higher, 8810 units
- YDCMIRADGSLICWC [S19 library phage peptide of SEQ ID NO: 38] — lower, 1290 units
- GPCVLIRDYYLLCLE [P179] — higher, 14000 units
- CDCREAVSASLVCRY [S19 library phage peptide of SEQ ID NO: 41] — higher, 3350 units

Molecular target: sEGFR-MMB (human)
Experiment: as above
Remark: another data set of the same source

Point of comparison: RGCVVFGDNIYCIV [S18 library phage peptide of SEQ ID NO: 35], ELISA 22000 units. Against it:
- AGCIAFVDVVYCAR [S18 library phage peptide of SEQ ID NO: 23] — lower, 6380 units
- AKCIAFGNSVYCLN [S18 library phage peptide of SEQ ID NO: 24] — higher, 31500 units
- RDCIIFDKTVYCVI [S18 library phage peptide of SEQ ID NO: 25] — lower, 17100 units
- KHCILFEKTVYCAK [S18 library phage peptide of SEQ ID NO: 26] — lower, 9110 units
- DSCIQFANLLYCAI [S18 library phage peptide of SEQ ID NO: 27] — higher, 53200 units
- TDCIRFGVLWYCLV [S18 library phage peptide of SEQ ID NO: 28] — lower, 4750 units
- RACITFGKVVYCEV [S18 library phage peptide of SEQ ID NO: 29] — higher, 30700 units
- AYCSFVAGDLVCQV [S18 library phage peptide of SEQ ID NO: 30] — lower, 19800 units
- TDCVIFGLETYCLR [P173] — higher, 37900 units
- SDCVLFGSKLFCSA [S18 library phage peptide of SEQ ID NO: 32] — higher, 35300 units
- TDCVRFGETIYCIV [S18 library phage peptide of SEQ ID NO: 33] — lower, 13300 units
- YDCVSFGAVAYCPQ [S18 library phage peptide of SEQ ID NO: 34] — lower, 3200 units

Molecular target: sEGFR-MMB (human)
Experiment: as above
Remark: another data set of the same source

Point of comparison: YICTPSDIDSWYICYL [S20 library phage peptide of SEQ ID NO: 46], ELISA 6620 units. Against it:
- PTCDSATRRVLTICAD [S20 library phage peptide of SEQ ID NO: 43] — lower, 5420 units
- WMCFLEGYGASLMCQC [S20 library phage peptide of SEQ ID NO: 44] — lower, 4800 units
- DSCCSFLTDGTVVCSL [S20 library phage peptide of SEQ ID NO: 45] — higher, 9540 units
- SVCVGTAFPGWMVCGP [S20 library phage peptide of SEQ ID NO: 47] — lower, 4770 units
- KTCVSTTFDLWFVCFA [P176] — higher, 37400 units
- LLCATTSFRDWFVCFT [S20 library phage peptide of SEQ ID NO: 49] — lower, 4510 units

Molecular target: sEGFR-MMB (human)
Experiment: as above
Remark: another data set of the same source

Point of comparison: LPDDSLPELICKVRG [P175], ELISA 6790 units. Against it:
- YRLFVDESIFFCTRL [S15 library phage peptide of SEQ ID NO: 10] — lower, 3080 units
- ELGLPTLLCWPTDTL [S15 library phage peptide of SEQ ID NO: 11] — higher, 9380 units
- VSGILPILVCHPAAT [S15 library phage peptide of SEQ ID NO: 12] — lower, 1110 units
- HVSLQSLPELICVVS [S15 library phage peptide of SEQ ID NO: 14] — lower, 1360 units
- NWFSLPTLLCFPLNP [S15 library phage peptide of SEQ ID NO: 15] — lower, 3670 units
- STITSLPTLQCWPIL [S15 library phage peptide of SEQ ID NO: 16] — higher, 13300 units
- PIDDESLPVLYCVTS [S15 library phage peptide of SEQ ID NO: 17] — lower, 1780 units
- PIFSSLPVLYCTSQL [S15 library phage peptide of SEQ ID NO: 18] — lower, 1420 units
- GADTLPDLLCWESSL [S15 library phage peptide of SEQ ID NO: 19] — lower, 5720 units
- TVFTLPELVCVVAGT [S15 library phage peptide of SEQ ID NO: 20] — lower, 1520 units
- LPDLICAVDSGTSGA [S15 library phage peptide of SEQ ID NO: 21] — lower, 1160 units

Molecular target: sEGFR-MMB (human)
Experiment: as above
Remark: another data set of the same source

Point of comparison: DACTMVFLWCSL [P177], ELISA 8660 units. Against it:
- SGCLDALWQCVY [P174] — higher, 34600 units
- RWCYFWWITICEL [P178] — lower, 7910 units
